test: yeast display, Sf9 membrane polyspecificity reagent, FACS + sequencing; frameworks hold sequencing errors
In short: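 Galactose induction of a Saccharomyces cerevisiae BJ5465 synthetic nanobody display library ran 36–48 hours. The cells were then stained for 1 hour at 4 °C with 10% biotinylated, detergent-solubilized Sf9 membrane reagent, pulled down on streptavidin microbeads and FACS-sorted into low and high (top ~1%) gates on expression and reagent-binding fluorescence. Labels for polyreactivity follow the gate of origin.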

Sequence	polyreactivity (PSR sort gate)
QDQLVESGGGLVQAGGSLRLSCAASGRTFYKYAMGWYRQAPGKERELVAAIRTGGGTSYADSVKGRFTISRDNAKNTVYLQMNSLKPEDTAVYYCNARGVYFWWRLDYWGQGTQVTVSS	low polyreactivity
QVQLVETGGGLVQEGGSLRLSCAASGRTFYSYAMGWYRQAPGKERELVARISSGGSTNYADSVKGRFTISRDNAKNTVYFQMNSLKPEDTAVYYCAAVRHRAMDYWGQGTQVTVSS	low polyreactivity
QVHLVESGGGLVQAGGSHRLSCAASGFIFKVNAMGWYRQAPGKERELVAAITGSGGSTYYADSVKGRFTISRDNAKNTVFLQMISLKPEDTAVYYCISLYDGYSTRLGFWGHGTQVTVSS	high polyreactivity
QVQLVESGGGLVHAGGSLRLSCAASGFTIPYYAMGWYRQAPGKERELVAAIRISGGSTYYADSVKGRFTISRDNAKNTVYLQMNSLKPEDTAVYYCAADYRYRSRFYYWGQGTQVTVSS	low polyreactivity
QVQLVESGAGLVQAGGSLRLSCAASGRIFRVYAMGWYRQAPGQERELVAAITSGGTTYADSVKGRLTISRDNAKKTVYLQMNILKPEDTAVYYCAARYYIHRGYDYDYWGQGTQVTVSS	high polyreactivity
QVQLVESGGGLVQAGGRLRISCAASGRTFQVYTIGWYRQAPGKERELVAAITWNGGRSRYADSVKGRFTISRDNAKNTVYLQMNRLKPEDTAVYYCNAGSTELGWTWELDYWGQGTQVTVSS	high polyreactivity
QVQLVESGGGLVQAGGSLRLSCAASGITISGYAMGWYRQAPGKERELVAAISRRGGSTYYADSVKGRFTISRDNAKNTVYLQMNSLKPEDTAVYYCARYPSRNYNYWGQGTQVTVSS	high polyreactivity
QVQLVESAGGLVQAVGSLRLSCDASGSTFSGNDMGWYRQAPGKERELVAAITSSGGSTYYADSVKGRFTISRDNAKNTVYLQMNSLKPEDTAVYYCAAKSRRTRRSYYWGQGTQVTVSS	high polyreactivity
QVQLVESGGGLVQAGGSLRLISAASVRTFAPYPRGWYREAPGKDRELVAAISSGGGNTYYADSVKGRFTISRDHPKNTVYLLMNSLKPEDTAGYYCNAAQRRGGLGYWGQGTQVTVSS	high polyreactivity
QVQLVESGGGLVQAGGSLRLSCAASGSTFLYYAMGWYRPAPGKERELVAAISSGDSTYADSVKGRFTISRDNAKNTVYLQMNSLKPEDTAVYYCNTVLYPYWQWDYEFDYWGQGTQVTVSS	low polyreactivity
QVQLVESGGGLVQAGGSLRLSCAASGFTFAYYAMGWYRQAPGKERELVAAITGSGGRTYYADSVKGRFTISRDNAKNTVYLQMNSLKPEDTAVYYCAALTGPYKAQVHGGHTPLDYWGQGTQVTVSS	low polyreactivity
QVQLVESGGGLVQAGGSLRLSCAASGSIFQPYAMGWYRQAPGKEWELVAAISRGGTTYYADSVKGRFTISRDNAKNTVYLQMNSLNPEDTAVYYCAVKGYRYVTRYDYWGQGTQVTVSS	high polyreactivity
QVQLVESGGGLVQAGGSLRLSCAASGRTFGPYAMGWYRQAPGKEREFVAAMSYSGGSTYYADSVKGRFTISRDTAKNTVFLQINSLKPEDTAVYYCAVDIDSNSGTRDYWGQGTQVTVSS	low polyreactivity
QVHLVESGGGLVQAGGSLRLSCAASGFTIYTYAMGGYRQAPGKERELVAAISSSGGSTSYADSVKGRFTISRDNAKITDYLQMNSLKPDDTALYYCNRGWRQQLGYWGQGTQVNVSS	high polyreactivity
QVQLVESGGGLVQAGGSLRLSWAASGSTFIGYAMGWYRQAPGKERELVAAISWSGGLTYYADSVKGRFTFSRDNAKNTVYLQMNSLKPEDTAVYYCNTVPYGISVQFNYWGQGTQVTVSS	high polyreactivity
QVQLVESGGGLVQAGGSLRLSCAASGRTFGYYAMGWYRQAPGKERELVAAITLSGGSTYYADSVKGRFTISRDNAKNTVYLQMNSLKPEDTAVYYCAAKWWHFYPYDYWGQGTQVTVSS	high polyreactivity
QLQLVESGGGLVQAGGSLRLSCAASGFTFVSNAMGWYRQAPGKERELVAVISSGGSTTYADSVKGRFSISPDNAKNTVYLQMNSLKPEDTAGYYCATTNSQDSYEGGDYWGQGTQVTVSS	low polyreactivity
QVQLVESGGGLVQAGGSLRLSCDASGRTFPEYGMGWYRQAPGKEREFVAAISTRGGSTYYANSVKGRFTISRDNAKNTVYLQMNSLKPEDTAVYYCAAKYPGGETYPFDYWGQGTQVTVSS	low polyreactivity
QFQLVESGGGLVQAGGSLRLSCAASGSTLRLNVMGWYRQAPGKERELVARISRGCSTYYADSVKGRFTISRDNAKNTVYLQMNSLKPEDTAVYYCTAQSYPCVTPYSYWGQGTQVTVSS	low polyreactivity
QVQLVESGGGLVQAGGSLRLSCAASGRTFQVNAMGWYRQAPGKERELVAAISASDGSTYADSVKGRFTISRDNAKNTVYLQMNSLKPEDTAVYYCNKAAYGGHRTSEQVGWVYLYDYWGQGTQVTVSS	low polyreactivity
QVQLVESGGGIVQAGGSLRLSCAASGRIFYVNAMGWYRQSPGKERELVAAISRSGSSTYYADSVKGRFTISRDNAKNTVYLQMNSLKPEDTAVYYCAARYYGRSQHHFDYWGQGTQVTVSS	high polyreactivity
QVQLVESGGGLVQAGGSLRLSCAASGSTLVIYAMGWYRQAPGKERELVAAINFSDGSTSYADSVKGRFTISRDNAKNTVYLQMNSLKPEDTAVYYWGQGTQVTVSS	low polyreactivity

Sequence	polyreactivity (PSR sort gate)
QVQLVESGGGLVQAGGSLRLSCAASGRISRGYAMGWYRQAPGKERELVAAIDSDGDTNYADSVKGRFTISRDNAKNTVYLQMNSLKPEDTAVYYCNKDGAYKTAYKRWTLYDYWGQGTQVTVSS	low polyreactivity
QVQLVESGGGLVQAGGSLRLICAASGRIFGKNDMGWYREAPRKEREFVATIDWSGGSTYYADSVKGRFTISRDNAKNTVDLQMNSLIPEDNAVYYCAARQYWTTDLPFQRYYYWGQGTQVTVSS	low polyreactivity
QVQLVESGGGLVQAGGSLRVSCAASGSTFFRYVMGWYRQAPGNERELVARITSSGSTYYADSVKGRFTISRDNAKNTVYLQMNSLKPEDTAVYYCAAVYASYPYRTKFYYWGQGTQVTVSS	high polyreactivity
QVQLEESGGGLVQAGGSLRLSCAASGSIFYDNVMGWSRQAPGKERELVAGITRGGSTNYADSVKGPFTISRDNAKNTVYLQMNSLKPEDTAVSYCAADGTYVWGSEEGNYWGQGTQVNVSS	low polyreactivity
QVQLVESGGGLVQAGGSLRLSCAASGSTFGYYSMGWYRQAPGKERELVAAIRYSGGTTYYADSVKGRYTISRDNAKNTVYLQMNSLKPEDTAVYYCAAVYTSGYYYWGQGTQVTVSS	high polyreactivity
QVQLVESAGGLVQAGGSLRLSCAASRRTFARYAIGRYRQAPGQERELVAALSRSGTCTYYADSVLGRFTISRDNAKNTVYLQKNSLKPEDCAVYYCAVDAYLGHYDYWGQGTQVTVSS	high polyreactivity
QVQLVESGGGLVQAGGSLRLSCPASGSIFRSYAMGWYRPAPGKERELVASISRRGGSSYYADSVKGRFTISRDNAKNTVYLQMNSLKPEDTAVYYCAAVRYNSRGSTTPSEMYYWGQGTQVTVSS	low polyreactivity
QVQLVESGGGLVQAGGSLRLSCAASGITSNTYAKGWYRQATGKERELVATITSGGSTNYADSVKGRFTISRDNAKNTVYLQMNSLKPEDTAVYFCNREYWLPTQFDYWGQGTQVTVSS	low polyreactivity
QVQLVESGGGLVQAGGSLRLSCAASGIFVDNAMGWYRQAPGKERELVAAITSSTDSTYYADSVKGRFAISRDNAKNTVYLQMNSLKPEDTAVDYCAVARPGGFYFLVHYGYGYWGQGTQVTVSS	low polyreactivity
QVQLVESWGGLVQAGGSLRLSCAASGSTFYAYAMGWYRQAPGKERELVAAIDSGGSTYYADSVKGRFTISRDNAKNTVYLQMNSLIPEDTAVYYCAVRHRYTRAYWGRDYWGQGTQVTVSS	low polyreactivity
QVQLVESGGGLVQAGGSLRISCAASGSIFVKNAMGWYRQAPGKEREFVAAITTSGGSTNYADSVKGRFTISRDNAKNTVYLQMNSLKPEDTAVYYCNTDIFPAAYDYWGQGTQVTVSS	low polyreactivity
QVQLVESGGGLVQAGGSLRLSCAASGSIFWPYTMGWSRQAPGKECELVAAITSTDSTDYADSVKGRFTISRDNAKNTVYLQMNSLKPEDTAVYYCNADYQSRTGSGIYTDHPYDYWGQGTQVTVSS	low polyreactivity
QVQLVESGGGLVQAGGSLRLSCAASGRTIRSYAMGWYRQAPGKERELVAAITGSGGRTYYADSVKGRFTISRDNAKNTVYLQMNSLKPEDTAVYYCAARLRGSYDYWGQGTQVTVSS	high polyreactivity
QVQLVESGGGLVQAGGSLRLSCAASGFTFTRYAKGWYRQAPGKERELVAAISQNGGSTYYADSVKGRFTISRDNAKNTVYLQMNSLKPEDTAVYYCYAGVRRTIAFDYWGQGTQVTVSS	high polyreactivity
QVQLEESGGRLVQAGGSLRLSCAASGRTFYPYAMGWYRQAPGKERELVAAISYRGGSTYYADSVKGRFTISRDNAKNTVYLQMNSLKPEDTAVYYCAKRGYASGSKWDYGYWGQGTQVTVSS	high polyreactivity
QVQLVESGGGLVQAGGRLRLSCAASGRTFVPYAMGWYRQPPGKERELVAAISYSGDSTYYADSEKGRFTISRDNAKNTVYLQMNSLKPEDTAVYYCAARGGNPFYYWGQGTQVTVSS	low polyreactivity
QVQLVESGGGLVQAGGSLRLSCAASGRIFGTNAMGWYRQAPRKERELVATITRGGGNTYYADSVKGRFTISRDNAKNTVYLQLNSLKPEDTAVYYCAAYDSVQKYWILGFDYWGQGTQVTVSS	low polyreactivity
QVQLVESGGGLVQAGGSLRLRCAASGSIIVPNAMGWYRQAPGKERELVAAISGRGGSTYYADSEKGRFTISRDNAKNTVSLQMKSLKPEDTAVYYCAAQDTYHSYGLYSWGQGTQVTVSS	low polyreactivity
QVQLVESGGGLVQAGGSLRLSCAASGSIFEIYDMGWYRQAPGKERELVASITWSGGSTYYADSVKGRFTISRDNAKNTVYLQMNSLKPEDTAVYYCATDKLYGRTVRMDYWGQGTQVSVSS	low polyreactivity
QFQLVESGGGLVQAGGSLRLSCAASGIIFYENNMGWYRQAPGKERELVAAINSGGSTYYADSVKGRFTISRDNAKNTVYLQMNSLKPEDTAVYYCDADDYSGLYYSSTYRYEYWGQGTQVTVSS	low polyreactivity
QVQLVESGGGLVQAGGSLRLSCAASGYTFRWYAMGWYRQAPGKERELVAAISWSTGRTYYADSVKGRFTISRDNAKNTVYLQMNSLKPEDNAVYYCAASYYVYSGGNYLRYDSWGQGTQVTVSS	high polyreactivity

From the nanobody polyreactivity screen of Harvey et al. (2022)
